Reference: the nanobody polyreactivity screen of Harvey et al. (2022)

test: yeast display, Sf9 membrane polyspecificity reagent, FACS + sequencing; frameworks hold sequencing errors
How it was run: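 Galactose induction of a Saccharomyces cerevisiae BJ5465 synthetic nanobody display library ran 36–48 hours. The cells were then stained for 1 hour at 4 °C with 10% biotinylated, detergent-solubilized Sf9 membrane reagent, pulled down on streptavidin microbeads and FACS-sorted into low and high (top ~1%) gates on expression and reagent-binding fluorescence. Labels for polyreactivity follow the gate of origin.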

Row | Sequence | polyreactivity (PSR sort gate)
1 | QVQLVESGGGLVQAGGSLRLSCAASASINSNYVMGWNRQAPGKERELVAAITRRGGRTYYADSVKGRFTISRDNAKNTVYLQMNSLKPEDTAVYYCAAERYPEAGSPYGTAEMDYWGQGTQVPVSS | low polyreactivity
2 | QVQLVESGGGLVQAGGSLRLSCATSGFTFVYNAMGWYRQAPGKESELVAAINWSGGRTYYADSVKGRFTISRDNAKNTVYLQMNSLKPEDTAVYYCAAGYSPYKGSAGYYWGQGTQVTVSS | low polyreactivity
3 | QFQLVESLGGLDQAGGSLRLSFAASGLIILAYAMVWYRQAPGKERELVAAISRNRGSTYYADSVKGRLTISRDNAKNTVYLQMNSLKPEVTEVYYCNNVSRSSVYLDYYYWGQGTQVTVSS | high polyreactivity
4 | QVQLVESGGGLVQAGGSLRLSCAASGYIFRRYAMGWYRQAPGKERELVAAISKSGVSTYYADSVKGRFTISRDNAKNTVYLQMNSLKPEDTAVYYCAASSYTWGEDYWGQGTQVTVSS | high polyreactivity
5 | QVQLVESGGGLVQAGGSLRLSCAASGRIFSYAMGWYRQAPGKERELVAAINWSGDSTYYADSVKGRFTISRDNAKNTVYLQMNSLKPEDTAVYYCNAVSAYWGAYGYWGQGTQVTVSS | high polyreactivity
6 | QVQLVESGGGLVQAGGSLRLSCAASGFIFQPNAMGWYRQAPGKERELVAVITWSGGSTYYADSVKGRFTISRDNAKNTVYLQMNSLKPEDTAVYYCAVDGAYDQKPTDLKGYYYWGQGTQVTVSS | low polyreactivity
7 | QVQLVESGGGLVQAGGSLRLSCAASGLTIAYYDMGWYRPAPGKERELVARISRGGSTNYADSVKGRFTISRDNAKNTVYLQMNSLKPEDTAVYYCNTGYVYPYKILMDYWGQGTQVTVSS | low polyreactivity
8 | QVQLVDSGGGLVQAGGSLRLSCAASGRIFYAYAMGGYRQAPGKERELVARISASGGNTYYADSVKGRFTISRDNAKNSVYLQMNSLKPEDTAVYYCNKLFWYGRQYDYWGQGTQVTVSS | high polyreactivity
9 | QVQLVETGGGLVQAGGSLRLSCAAYGSIFIGYAMGWYRQAPGKERELVAAISNSGGRTYYADSVKGRFTISRDNAKNTVYLQMNSLKPEDTEVYYCNVDYRIPYRMDYWGQGTQVTVSS | high polyreactivity
10 | QDQLVESRGGLVQAGGSLRLSCAASGSTLSGNAMGWYRQAPGKERELVAAITSSGGRTYYADSVKGRFTISRDNAKNTVYLQMNSLKPEDTAVYYCAKDRYGWGQGTQVTVSS | high polyreactivity
11 | QVQLVESGGGLVQAGGSLRLSCAASGSTFFYNAMGWYRQAPGKERELVAAMSLSGGSITYYADSVKGRFTISRDNANNTVYLQMNSLKPEDTAVYYCAADSQATSYGLDYWGQGTQVTVSS | low polyreactivity
12 | QVQRVESGGGLVQAGGSLRLSCAASGITFGPYAMGWYRQAPGKERELVAAITGSGGITYYADSVKGRFTISRDNAKNTVYLQMNSLKPEDTAVYYCAAEYPYVYGTYSDSYTEYDYWGQGTQLTVSS | low polyreactivity
13 | QVQLVESGGGLVQAGGSLRLSCAASGRTFYRYAMGWYRQAPGKERELVARIRSGGSTNYADSVKGRFTISRDNAKNTVYLQMNSLKPEDTAVYYCAVDDAYPDRYDYWGQGTQVTVSS | high polyreactivity
14 | QVQLVESGGGLVQAGGSLRLSCAASGRTFYYYAMGWYRQPPGKERELVAAIRWSTGSTYYADSVKGRFTISRVNAQITVYLQMNSLKPEDTAVYYCAADTWYIQWGYYWGQGTQVTVSS | low polyreactivity
15 | QVQLVESGGGLVQAGGSLRLSCAASGRTFFKYVMGWSRQAPGKERELVAAITWNGGRTNYADSVKGRFTISRDYAKNTVYLQMNSLKPEDTAVYYCAAVTSVNPSVFNGNYWGQGTQVTVSS | low polyreactivity
16 | QVQLVESGGGLVQAGGSLRLSCAATGFRFVHTAIGWYRKAPGKERELVAAIRSRGGSTYYADSVKGRFTISRDNAKNTVYLQMKSLKPEDTAVYYCAADGAVDSSSRKFGYWGQGTQVNVSS | low polyreactivity
17 | QVQLVESGGGLVQAGGSLRLSCAASGSTFRYYAKGWYRQAPGKERELVAAINYGGGRTYYADSVKGRFTISRDIAKNTVYLQMNSLKPEDTAVYYCATGYYYYRFYTYGYWGQGTQVTVSS | high polyreactivity
18 | QVQLVESGGGLVQAGGSLRLSCAASGFIFSRYVMGWYRQAPGKEMELVAVISYRGGSTYYADSVKGRFTISRDNAKNTVYLQMNSLKPEDTAVYYCNADTIPDGEDRYDYWCQGTQVTVSS | low polyreactivity
19 | QVQLVESGGGLVQAGGSLRLSCAASGSTFYVYAMGWYRQAPGKERELVAAIDRGSSTYADSVKGRFTISRDNAKNTVYLQMNSLKPEDTAVYYCAAEKERDEEYDYWGQGTQVTVSS | low polyreactivity
20 | QVQLVESGGGLVQAGGSLRLSCAASGRIFARNAMGWYRQAPGKERELVAAISSSGGTYYADSVKGRFTISRDNAKNTVYLQMNSLKPEDTAVYYCNARVRTQQRWVDYWGQGTQVTVSS | high polyreactivity
21 | QVQLVESGGGLVQAGGSLRLSCAASGTFSSYAMGWYRQAPGKERELVAAITNGGNTNYADSVKGRFTISRDNAKNTVYLQMNSLKPEDTAVYYCNARYGNESQGWEDYWGQGTQVTVSS | low polyreactivity
22 | QVQLVESGGGLVQAGGSLRLSCAASGFIFKYYAMGWYRQAPGKERELVATITRRGGSTYYADSVKGRFTISRDNAKNTVYLQMNSLKPEDTAVYYCNVTPDWNARRPFDYWGQGTKVTVSS | high polyreactivity

Row | Sequence | polyreactivity (PSR sort gate)
23 | QVQLVESGGGLVQAGGSLRLSRAASGFTITYNAKGWSRPAPGKESELVAAITGDGGSTYYADSVKGRFTISRDNAKNTVYLQMNSLKPEDTAVYYCAAYVVWGGTDGRYDYWGQGTQVTVSS | low polyreactivity
24 | QVQLVESGGGLVQAGGSLRLSCAASGRTFVTNTMGWYRQAPGKEREFVAAITWNGGGTYYADSVKGRFTISRDNAKNTVYLQMNSLKPEDTAVYYCAARGRTDSYWRFYHWGQGTQVTVSS | high polyreactivity
25 | QVQLVESGGGLVQAGGSLRLSCAASGSTFAANAMGWYRQAPGKERELVAGISESGDRTYADSVKGRFTISRDNPKNTVYLQMNSLKPEDTAVYYCNVGANVYLLYFPSRGGVYDYGYWGQGTQVTVSS | low polyreactivity
26 | QVQLVESGGGLVQAGGSLRLSCAASGFIFSSYAMGWYRQAPGKERELVAAISRGGSTYYADSVKGRFTISRDNAKNTVYLQMNSLKPEDTAVYYCNARRYRHDGYWGQGTQVTVSS | high polyreactivity
27 | QVQHVESGGGLVQAGGSLRLSCAASGRIFHYYAMGWYRQAPGKERELVATISRRGGTTYYADSVKGRFTISRDNAKNTVYLQMNSLKPEDTAVYYCAAKYFGTRYDYWGQGTQVTVSS | high polyreactivity
28 | QVQLVESGGGLVQAGGSLRLSCAASGIIFISYVMGWYRQAPGKERELVAAITRSGDSTYYADSVKGRFTISRDNAKNTVYVQMNSLKPEDTAVYYCAAEHAYSYWDYDYWGQGTQVTVSS | high polyreactivity
29 | QVQLVESGGGLVQAGGSLRLSCAASGFTFRVDAMGWYRQAPGKERELVAAISVRGDSTYYADSVKGRFTISRDNAKNTVYVQMNSLKPEDTAVYYSAAAVRTISRFTFYYWGQGTQVTVSS | high polyreactivity
30 | QVQLVESGGGLVQAGGSLRLSCAAYVRIFGYYAMGWYRQAPGKERELVAGISARGGSTYYADSVKGRLTISRDNAKNTVYLQMNSLKPEDTAVYYCAAYYLWPGYLFRPYDYWGHGTQVTVSS | low polyreactivity
31 | QVQLVESGGGLVQARGSLRLSSGASGSTFATDYAMGWYRQAPGKERELDAAIAYTSASTYYADSVKGRITISRDNAKNPVYLQMNTLKPEDTAVYYCAADYGGTREYYWGQGTQVTVSS | low polyreactivity
32 | QVQLVESGGGLDQAGGSLRLSCADSGSIFESYAMGWYRQAPGKERELVAAITKRGGSTYYADSVKGRFTISRDNAKNTVYLQMNSLKPEDTAVYYCNARWPGIGPIYDYWGQGTQVTVSS | low polyreactivity
33 | QVQLVESGGGLVQAGGSLLLSGAPSGRTFPYYAMGWYRQAPGKERELVARISSDGSTTYADSVKGRITISRDHAKNTVYLQMNSLKPEDTAVYYSAADVTFAGLKYIFDYWGPGTQVTVSS | low polyreactivity
34 | QVQLVESGGGLVQAGGSLRLSCAASGSIFRPNAMGWYRQAPGKEREFVASISGRVGSTYYADSVKGRFTISRDNAKNTVYLQMYSLKPEDTAVYYCAADSRGGYKRNYWGQGTQVTVSS | high polyreactivity
35 | QVHLVESGGGLVQAGGSLRLSCAASGRTFGRKAMGWYRQAPGKERELVASITKRGGSTYYADSVKGRFTISRDNAKNTVYLQMNSLKPVDTAVYYCAVEAYDYWGQGTQVTVSS | high polyreactivity
36 | QVQLVESGGGLVQEGGSLRLSCAASGRIFDENAMGWYRQAPGKERELVAAISSGDSTKYADSVKGRFTISRDNAKNTVYLQMNSLKPEDTAVYYCAAARNHGLVGSESVGRNDYWGQGTQVTVSS | low polyreactivity
37 | QVQLVESGGGLVQAGGSLRLSCAASGSIFLLYYMGWYRQAPGKERELVAANTWSGGSTYYADSVKGRFTISRDNAKNSVYLQMNSLKPEDTAVYYFAADEPYPTAYEYWGQGTQVTLSS | low polyreactivity
38 | QVQLVESGGGLVQAGGSLRLSCAASGSIFSGNVMGWYRPAPGKERELVAAISGRGGSTYYPDSVKGRFTISRDNAKNTVFLQMNSRNPVDTAVYECAAVYLKTYYWGQGTQVTVSS | high polyreactivity
39 | QVQLVESGGGLVQAGGSIRLSCAASGITFYKYAMGWYRQAPGKERELVAAISGNGGSTYYADSVKGRFTISRDYAKNTVYLQMNSLKPEDTAVYFCNRGYRRTDNYWGQGTQVTVSS | high polyreactivity
40 | QVQLVESGGCLVQAGGSLRLSCAASGSIFPVNAMGWYRQAPGKERELVAAITSSGGTTYYADSVKGRFTISRDNAKNTVYLQMNSLKPEDTAVYYCAADVDVSYWRMEYWGQGTQVTVSS | high polyreactivity
41 | QVHLVESGGGLVQAGGILRLSSPASGSISGWYAMGWSRQEPGKERELVSDMTRGGRTYYADSVKGRFTISRDNAKNTVYLQMNSLKPEDTAVYYCASPSPSYYYRSGWGSYYSWGLGTQVTVSS | high polyreactivity
42 | QVQLVESGGGLVQAGGSLRLSCAASGRTFQRNAMGWYRQAPGKERELVAAISGGGSTYYADSVKGRFTISRDNAKNTVYLQMNSLKPEDTAVYYCAARSATRLYYFSRGYDYWGQGTQVTVSS | low polyreactivity
43 | QVQLVESGGGLVQAGGSLRLSCAASGSIFRRYAMGWYRQAPGKERELVAGITRGGSTYYADSVKGRFTISRDNAKNTVYLQMNSLKPEDTAVYYCNRAARYGEYDYWGQGTQVTVSS | high polyreactivity
